# Source: US20170267757A1
# Legend:
# Experiment in all cases: sandwich ELISA, antibody as capture 100 ng/well, CHO-K1 supernatant, anti-human Ig-HRP
# [1] = target: CD66c mutant (BI/BHI)-hFc (human)
# [2] = target: CD66c mutant (HPK/HdIII/PstI/klenow)-hFc (human)
# [3] = target: CD66c-HuIgFc recombinant antigen (human)
# CD66c-HuIgFc recombinant antigen (human), sequence (chain, as listed by the source limits assumed): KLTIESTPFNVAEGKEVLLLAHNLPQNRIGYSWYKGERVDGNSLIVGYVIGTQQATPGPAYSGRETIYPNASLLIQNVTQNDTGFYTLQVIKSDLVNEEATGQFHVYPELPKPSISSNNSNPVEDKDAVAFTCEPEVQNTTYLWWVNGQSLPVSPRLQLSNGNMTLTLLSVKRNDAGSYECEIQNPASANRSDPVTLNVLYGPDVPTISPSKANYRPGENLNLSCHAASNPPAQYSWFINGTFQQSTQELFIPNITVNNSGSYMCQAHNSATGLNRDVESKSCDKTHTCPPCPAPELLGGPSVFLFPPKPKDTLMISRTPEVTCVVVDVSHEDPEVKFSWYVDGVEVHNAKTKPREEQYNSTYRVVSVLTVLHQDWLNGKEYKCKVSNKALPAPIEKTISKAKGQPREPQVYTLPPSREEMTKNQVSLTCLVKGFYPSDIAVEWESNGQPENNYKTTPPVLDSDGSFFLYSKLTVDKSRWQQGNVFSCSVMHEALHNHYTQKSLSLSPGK
# CD66c mutant (BI/BHI)-hFc (human), sequence (chain, as listed by the source mutant limits assumed, form in doubt): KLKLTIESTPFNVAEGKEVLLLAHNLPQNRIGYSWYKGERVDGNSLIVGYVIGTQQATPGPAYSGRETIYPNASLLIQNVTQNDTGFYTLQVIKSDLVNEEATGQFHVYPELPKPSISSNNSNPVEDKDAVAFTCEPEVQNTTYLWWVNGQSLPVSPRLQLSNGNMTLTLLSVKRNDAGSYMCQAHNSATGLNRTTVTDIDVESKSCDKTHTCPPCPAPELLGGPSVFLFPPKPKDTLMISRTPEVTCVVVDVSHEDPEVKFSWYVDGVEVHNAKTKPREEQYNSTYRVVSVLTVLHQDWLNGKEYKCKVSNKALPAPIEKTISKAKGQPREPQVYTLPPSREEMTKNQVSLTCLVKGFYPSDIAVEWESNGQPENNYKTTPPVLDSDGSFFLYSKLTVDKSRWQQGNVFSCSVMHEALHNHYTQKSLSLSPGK
# CD66c mutant (HPK/HdIII/PstI/klenow)-hFc (human), sequence (chain, as listed by the source mutant limits assumed, form in doubt): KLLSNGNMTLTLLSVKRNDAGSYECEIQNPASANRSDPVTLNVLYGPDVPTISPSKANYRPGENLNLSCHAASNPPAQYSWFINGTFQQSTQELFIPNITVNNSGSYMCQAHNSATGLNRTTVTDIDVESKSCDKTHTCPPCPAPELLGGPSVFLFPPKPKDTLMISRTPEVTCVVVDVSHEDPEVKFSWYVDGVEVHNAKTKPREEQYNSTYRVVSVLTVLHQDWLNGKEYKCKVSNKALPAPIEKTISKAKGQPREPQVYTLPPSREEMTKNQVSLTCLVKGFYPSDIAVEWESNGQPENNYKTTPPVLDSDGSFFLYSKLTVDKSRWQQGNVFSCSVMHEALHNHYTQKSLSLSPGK
substance,measurement,setting,value
9A6 anti-CD66c monoclonal antibody (Santa Cruz),absorbance at 450 nm (absorbance at 450 nm),[1],1.92
same,absorbance at 450 nm (absorbance at 450 nm),[2],0.049
same,absorbance at 450 nm (absorbance at 450 nm),[3],2.84
